Patent publication US20210299212A1, “BINDNG MOLECULES TO TUMOR ASSOCIATED MACROPHAGES AND METHODS OF USE” (Sanford Burnham Prebys Medical Discovery Institute, priority 2018, published 2021)

Experiments:
[1] = molecular target: T1, human recombinant RXRB protein (Homo sapiens, UniProt P28702); experiment: Binding of FAM-peptide to protein immobilized on a plate; conditions: 1 μM, room temperature, 1 h, fluorescence
T1 sequence (P28702 1-533): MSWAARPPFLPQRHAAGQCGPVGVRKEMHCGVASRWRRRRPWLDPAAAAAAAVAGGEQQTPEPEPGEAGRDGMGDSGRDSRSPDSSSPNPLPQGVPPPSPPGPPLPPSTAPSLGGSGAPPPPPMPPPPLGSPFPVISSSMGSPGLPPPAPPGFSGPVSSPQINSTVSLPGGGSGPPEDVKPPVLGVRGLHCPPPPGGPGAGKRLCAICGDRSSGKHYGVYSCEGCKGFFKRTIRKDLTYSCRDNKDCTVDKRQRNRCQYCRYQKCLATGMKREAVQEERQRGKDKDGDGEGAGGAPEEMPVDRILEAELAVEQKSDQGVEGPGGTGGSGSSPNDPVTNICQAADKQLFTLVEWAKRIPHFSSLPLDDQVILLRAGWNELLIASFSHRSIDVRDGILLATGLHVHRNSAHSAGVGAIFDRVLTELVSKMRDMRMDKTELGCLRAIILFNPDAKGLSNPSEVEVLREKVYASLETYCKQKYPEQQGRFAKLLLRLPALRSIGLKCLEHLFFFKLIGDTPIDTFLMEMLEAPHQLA
Procedure: (§1) To confirm RXRB binds CRV, the binding of FAM-CRV to human recombinant RXRB protein immobilized on a plate was tested. Human RXRB recombinant protein (50 μL, 5 μg/mL) was immobilized in high binding 96-well plate at 4° C. overnight. Bovine serum albumin was used as the control protein. The protein solution was removed and washed one time with PBS. 1% BSA in PBS solution was then added to the wells and incubated at room temperature for 1 h to block the rest available binding sites. After one wash with PBS, RXRB and BSA were incubated with FAM-CRV (100 μL, 1 μM) at room temperature for 1 h. The wells were washed three times with PBS and the fluorescence was measured using a multiplate reader.

Bovine serum albumin = Bovine serum albumin (Bos taurus, UniProt P02769); experiment: Binding of FAM-peptide to control protein immobilized on a plate; conditions: 1 μM, room temperature, 1 h, fluorescence
Procedure: as §1

[2] = test system: cells isolated from tumors, spleen, liver, and blood from the 4T1 tumor mice; experiment: Ex vivo binding to cells isolated from organs of 4T1 mice, flow cytometry; format: cell-based, mouse; conditions: 4T1 model, 4° C., 1 h
Procedure: Mice with tumor size about 8 mm were euthanized under deep anesthesia (Avertin, lack of response to a toe pinch) by cervical dislocation. Target (tumor) and control (e.g., liver, spleen) tissues were collected and further dissociated to single cells. Tumor cells were dissociated using MACS tumor dissociation kit. Cells were then incubated with fluorescent-labeled CRV or other cell markers (CD11b, CD68, F4/80, FAB, EpCAM, CD31) at 4° C. for 1 h. Positive cells were quantified on BD LSRFORTESSA and data were analyzed using FCS Express Version 3 (De Novo Software).

4T1 tumors = experiment: Immunofluorescence staining of tissues for FAM-peptide and CD31 at different homing time points; format: in vivo, mouse; conditions: 4T1 orthotopic tumor-bearing mice, i.v.
Procedure: FAM-CRV was intravenously injected into tumor bearing mice. To this end, 4T1 […] breast cancer cells were cultured in Dulbecco's modified Eagle's medium supplemented with 10% fetal bovine serum, 100 U/mL penicillin and 100 μg/mL streptomycin. The […] cell line was authenticated by the DNA Analysis Core Facility at the Sanford Burnham Prebys Medical Discovery Institute (La Jolla, Calif.) and tested negative for mycoplasma contamination. To produce 4T1 tumors, 1×10^6 tumor cells (suspended in 100 μL of PBS) were orthotopically injected into the mammary fat pad of normal BALB/c mice. All animal experimentation received approval from the Animal Research Committee of Sanford Burnham Prebys Medical Discovery Institute. Biodistribution of fluorescein-conjugated peptides (FAM-CRV, FAM-GGS, or FAM-ARA) was examined after intravenous injection of 100 μL peptide solution (1 mg/mL PBS) into the tail vein of a mouse. […] Tissues were collected, fixed with 4% formaldehyde buffer solution and then soaked in 30% sucrose in PBS overnight. Tissues were finally frozen in OCT embedding medium (Tissue-Tek), and sliced for immunofluorescence staining. Tissue sections were blocked in 1% bovine serum albumin with 0.1% Triton X-100 for 1 h, and incubated with appropriate primary antibodies and second antibodies. […]

Sequence of Bovine serum albumin (P02769 25-607): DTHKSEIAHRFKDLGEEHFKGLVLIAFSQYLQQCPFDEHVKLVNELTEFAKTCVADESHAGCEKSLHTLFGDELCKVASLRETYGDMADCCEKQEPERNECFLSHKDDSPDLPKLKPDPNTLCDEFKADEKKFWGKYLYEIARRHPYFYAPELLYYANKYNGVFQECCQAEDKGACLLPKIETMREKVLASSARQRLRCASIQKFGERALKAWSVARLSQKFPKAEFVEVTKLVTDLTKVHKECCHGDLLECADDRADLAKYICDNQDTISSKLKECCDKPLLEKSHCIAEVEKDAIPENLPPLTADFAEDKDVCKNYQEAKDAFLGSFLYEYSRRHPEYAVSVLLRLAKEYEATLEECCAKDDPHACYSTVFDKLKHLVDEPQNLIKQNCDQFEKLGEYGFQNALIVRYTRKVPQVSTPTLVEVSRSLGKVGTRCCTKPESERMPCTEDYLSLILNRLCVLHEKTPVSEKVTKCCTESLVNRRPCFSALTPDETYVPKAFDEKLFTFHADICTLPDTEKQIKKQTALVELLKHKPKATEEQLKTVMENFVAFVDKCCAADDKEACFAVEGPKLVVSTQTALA

Sequence | binding to immobilized RXRB compared to control peptide FAM-GGS [1] | binding to control protein BSA (Bovine serum albumin) | specific labelling of macrophages in the tumor (ex vivo) [2] | fluorescence signal in the tumors at homing time points 5, 15, and 60 min (4T1 tumors)
CRVLRSGSC [cyclic macrophage-targeting peptide] | significantly higher binding | neither peptide bound |  | 
GGSGGSKG [FAM-GGS, FAM-labeled control peptide] |  | neither peptide bound | could not specifically label macrophages | no fluorescence signals
